Data as given in patent US20060211627A1 (BURNHAM INSTITUTE, published 2006).
Square brackets hold non-standard residues; d marks the D form. Ends that are not written are not given here. 2Nal = N[C@@H](Cc1ccc2ccccc2c1)C(=O)O; d2Nal = N[C@H](Cc1ccc2ccccc2c1)C(=O)O; 2Thi = N[C@@H](Cc1cccs1)C(=O)O; Cha = N[C@@H](CC1CCCCC1)C(=O)O; d2Thi = N[C@H](Cc1cccs1)C(=O)O; dCha = N[C@H](CC1CCCCC1)C(=O)O

Target: GST-XIAP (human, UniProt P98170 1-497)
Experiment: cell-based or functional assay

Sequence of GST-XIAP (P98170 whole entry): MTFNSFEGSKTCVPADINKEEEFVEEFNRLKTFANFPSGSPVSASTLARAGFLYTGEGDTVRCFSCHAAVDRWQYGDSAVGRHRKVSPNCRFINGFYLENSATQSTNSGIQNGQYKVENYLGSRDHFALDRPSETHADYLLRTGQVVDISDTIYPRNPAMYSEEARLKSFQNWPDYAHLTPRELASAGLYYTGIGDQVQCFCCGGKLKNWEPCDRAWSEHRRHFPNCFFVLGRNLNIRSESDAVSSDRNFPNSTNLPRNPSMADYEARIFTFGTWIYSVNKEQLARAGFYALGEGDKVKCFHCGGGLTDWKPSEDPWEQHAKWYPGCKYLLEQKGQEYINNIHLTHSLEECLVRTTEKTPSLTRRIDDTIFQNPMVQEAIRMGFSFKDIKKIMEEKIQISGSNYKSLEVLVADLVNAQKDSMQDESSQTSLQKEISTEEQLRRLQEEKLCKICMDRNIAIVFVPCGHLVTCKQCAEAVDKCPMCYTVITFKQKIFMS

| Molecule | ratio of Vmax with and without peptide, caspase derepression assay |
| --- | --- |
| A[dW]W[2Thi] [TPI 1332/1352-47] | > 2.4 |
| AWW[2Thi] (also: some Trp may retain formyl protecting groups) [TPI 1332/1352-1] | > 2.4 |
| A[dW]W[2Thi] [TPI 1352-6] | > 2.4 |
| [Cha][d2Nal]W[2Thi] [TPI 1332-41] | > 2.4 |

Second part, the molecule after the results:

| ratio of Vmax with and without peptide, caspase derepression assay | Molecule |
| --- | --- |
| > 2.4 | [2Nal][dCha]W[dW] [TPI 1352-66] |
| > 2.4 | [2Nal][d2Thi][dF][dW] [TPI 1352-72] |

Target: GST-BIR3RING (human) (UniProt P98170)
Experiment: fluorescence polarization competition; unlabeled SMAC 0 to 50 µM against 400 nM rhodamine-SMAC and 1 µM GST-BIR3RING

Sequence of GST-BIR3RING (human) (P98170 243-497): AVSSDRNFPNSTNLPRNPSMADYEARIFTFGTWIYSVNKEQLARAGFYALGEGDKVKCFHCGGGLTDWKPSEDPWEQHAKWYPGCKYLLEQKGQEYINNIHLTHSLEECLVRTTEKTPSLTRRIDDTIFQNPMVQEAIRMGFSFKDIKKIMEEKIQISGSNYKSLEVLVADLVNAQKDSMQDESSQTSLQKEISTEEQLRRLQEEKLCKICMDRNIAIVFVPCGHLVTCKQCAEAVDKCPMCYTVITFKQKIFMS

| Molecule | IC50 |
| --- | --- |
| unlabelled SMAC (peptide) | 21 µM |
